Changes are numbered by the printed parent chain. Names and notes keep the numbering of the source.
T1: Human CD73 ECD (human, UniProt P21589 27-549)
T1 construct: Biotinylated in some assays; also called human CD73 extracellular domain; huCD73
T1 sequence: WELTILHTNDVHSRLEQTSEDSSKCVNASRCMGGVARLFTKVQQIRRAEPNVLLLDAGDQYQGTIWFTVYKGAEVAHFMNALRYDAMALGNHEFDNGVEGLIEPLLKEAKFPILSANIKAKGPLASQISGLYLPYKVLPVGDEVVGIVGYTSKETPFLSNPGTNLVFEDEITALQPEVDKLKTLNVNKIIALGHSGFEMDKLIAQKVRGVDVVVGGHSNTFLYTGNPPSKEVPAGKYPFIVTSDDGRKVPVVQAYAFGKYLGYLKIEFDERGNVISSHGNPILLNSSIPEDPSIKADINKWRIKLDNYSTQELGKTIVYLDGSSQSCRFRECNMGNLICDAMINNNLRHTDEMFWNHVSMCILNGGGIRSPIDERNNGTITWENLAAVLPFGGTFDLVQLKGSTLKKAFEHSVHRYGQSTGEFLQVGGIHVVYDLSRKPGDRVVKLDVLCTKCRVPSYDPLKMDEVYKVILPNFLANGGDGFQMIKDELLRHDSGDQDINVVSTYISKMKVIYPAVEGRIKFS

T2: Human CD73 on cells (MDA-MB-231, Jurkat CD73 knock-in, NCI-H322) (human, UniProt P21589 27-549)
T2 sequence: T1 sequence

T3: Murine CD73 on cells (4T1, Jurkat mCD73 knock-in) (murine, UniProt Q61503 29-551)
T3 construct: whole, on cells; also called 4T1 (murine)
T3 sequence (looked up): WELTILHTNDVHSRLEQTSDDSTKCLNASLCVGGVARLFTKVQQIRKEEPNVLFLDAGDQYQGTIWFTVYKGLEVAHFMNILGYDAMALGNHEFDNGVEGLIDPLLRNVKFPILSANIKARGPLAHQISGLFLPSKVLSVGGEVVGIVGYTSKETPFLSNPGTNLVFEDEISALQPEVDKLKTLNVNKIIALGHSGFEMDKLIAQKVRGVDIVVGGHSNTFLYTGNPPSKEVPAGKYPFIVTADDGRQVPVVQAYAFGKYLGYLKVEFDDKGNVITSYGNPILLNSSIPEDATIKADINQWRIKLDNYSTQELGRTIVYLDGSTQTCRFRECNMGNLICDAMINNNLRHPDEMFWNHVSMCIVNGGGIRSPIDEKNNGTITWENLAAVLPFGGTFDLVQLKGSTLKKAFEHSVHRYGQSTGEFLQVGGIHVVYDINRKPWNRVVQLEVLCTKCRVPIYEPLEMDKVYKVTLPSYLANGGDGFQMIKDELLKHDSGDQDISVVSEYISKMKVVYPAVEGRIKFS

T4: Cynomolgus CD73 on MK-1 cells (cynomolgus, UniProt A0A2K5V5U7 27-549)
T4 construct: whole, on cells; also called MK-1 (cyno)
T4 sequence: T1 sequence with M199T, T350A, V466I

T5: Murine CD73 ECD (murine, UniProt Q61503 29-551, limits assumed)
T5 construct: extracellular domain; In-house recombinant ECD; also called murine CD73 extracellular domain; muCD73
T5 sequence (looked up): T3 sequence (looked up)

B1: C2 (IgG1-TM) (antibody, V domains shown)
VH: EVQLLESGGGLVQPGGSLRLSCAASGFTFSSYAYSWVRQAPGKGLEWVSLIWGSWGSTYYADSVKGRFTISRDNSKNTLYLQMNSLRAEDTAVYYCARLGYSTIDMWGRGTLVTVSS
VL: QSVLTQPPSASGTPGQRVTISCSGSLSNIGRNPVNWYQQLPGTAPKLLIYLDNLRLGGVPDRFSGSKSGTSASLAISGLQSEDEADYYCATWDDSLKGWLFGGGTKLTVL
notes: IgG1-TM format; also called clone 10 C2
B2: 73combo2 (C2+GRVE+HPT) (antibody, V domains shown)
VH: B1 VH with S102G, T103R, I104V, M106E
VL: B1 VL with L96H, K97P, L100T
notes: IgG1-TM format; also called clone 10 combo2
B3: G10 (IgG1-TM) (antibody, V domains shown)
VH: B1 VH with L50A, W52S, S57R, M106L
VL: B1 VL with P33D, D52N, L54Q
notes: IgG1-TM format; also called clone 10 G10
B4: 73combo5 (G10+GRVE+HPT) (antibody, V domains shown)
VH: B1 VH with L50A, W52S, S57R, S102G, T103R, I104V, M106E
VL: B1 VL with P33D, D52N, L54Q, L96H, K97P, L100T
notes: IgG1-TM format; also called clone 10 combo5
B5: Phen0203 hIgG1 (antibody, V domains shown)
VH: EVQLVQSGGGVVQPGRSLRLSCAASGFRFSDFAMHWVRQAPGKGLEWVAGISYDGGNKYYADSVKGRFTISRDNSNNTLYLQMNSLRAEDTAVYYCAKDHGYSGYYGHLDYWGRGTLVTVSS
VL: not shown
B6: CD730069 (antibody, V domains shown)
VH: EVQLLESGGGLVQPGGSLRLSCAASGFTFSEYQMGWVRQAPGKGLEWVSYIRSSGGQTIYADSVKGRFTISRDNSKNTLYLQMNSLRAEDTAVYYCARRTYSSGWHIDYWGQGTLVTVSS
VL: DIQMTQSPDSLSASVGDRVTITCRASQSISRYLNWYQQKPGKAPKLLIYGASSLQSGVPSRFSGSGSGTDFSLTISSLQLEDFATYYCQQSYRTPLTFGGGTKVEIQ
B7: CD730068 (antibody, V domains shown)
VH: EVQLLESGGGLVQPGGSLRLSCAASGFTFSNYIMGWVRQAPGKGLEWVSSISSSGGATIYADSVKGRFTISRDNSKNTLYLQMNSLRAEDMAVYYCAKDHLGGHGMDVWGQGTTVTVSS
VL: DIQMTQSPSSLSASVGDRVTITCRASQDISNYLAWFQQKPGKAPKSLIFAASSLESGVPSKFSGSGSGTDFTLTISSLQPEDSATYYCQQYNSYPLTFGGGTKVEIK
B8: CD730047 (antibody, V domains shown)
VH: EVQLVQSGGGVVQPGRSLRLSCAASGFTFSSYGMHWVRQAPGKGLEWVAVISYDGSIKYYADSVKGRFAISRDNAKNTLYLQMNSLRREDTAMYYCASGLTGVAGALGVWGRGTLVTVSS
VL: QSVLTQPPSASGAPGQRVTISCSGSSSNIGSNTVNWYQRLPGAAPQLLIYNNDQRPSGIPDRFSGSKSGTSGSLVISGLQSEDEADYYCAAWDDSLSGNVFGTGTKVTVL
notes: IgG1-TM format; also called CD730047 antibody
B9: CD730002SGMY CDRH2 G65R (Fab, V domains shown)
VH: EVQLLESGGGLVQPGGSLRLSCAASGFTFSSYAMSWVRQAPGKGLEWVSAISGSGGSTYYADSVKRRFTISRDNSKNTLYLQMNSLRAEDTAVYYCARDKGYYWYMDVWGQGTMVTVSS
VL: QSVLTQPPSVSVSPGQTASITCSGDKVGDKYASWYQQKPGQSPVLVIYEDTKRPSGIPERFSGSNSGNTATLTISGTQAMDEADYYCQAWDTSFWVFGGGTKLTVL
notes: format in the FACS read-out not clearly stated
B10: CD730002SGMY CDRH2 T57P (Fab, V domains shown)
VH: B9 VH with T58P, R66G
VL: B9 VL
notes: as for B9
B11: CD730002SGMY CDRL2 P55H (Fab, V domains shown)
VH: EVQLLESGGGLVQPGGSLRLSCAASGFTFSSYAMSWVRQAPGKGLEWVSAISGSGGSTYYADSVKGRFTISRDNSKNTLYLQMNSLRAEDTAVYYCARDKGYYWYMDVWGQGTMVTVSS
VL: B9 VL with P54H
notes: format not clearly stated
B12: CD730002SGMY CDRH2 A60G (Fab, V domains shown)
VH: B9 VH with A61G, R66G
VL: B9 VL
notes: as for B9
B13: CD730002SGMY CDRH1 M34R (Fab, V domains shown)
VH: B9 VH with M34R, R66G
VL: B9 VL
notes: as for B9
B14: CD730002SGMY CDRH1 Y32V (Fab, V domains shown)
VH: B9 VH with Y32V, R66G
VL: B9 VL
notes: as for B9
B15: CD730002SGMY CDRL2 T52S (Fab, V domains shown)
VH: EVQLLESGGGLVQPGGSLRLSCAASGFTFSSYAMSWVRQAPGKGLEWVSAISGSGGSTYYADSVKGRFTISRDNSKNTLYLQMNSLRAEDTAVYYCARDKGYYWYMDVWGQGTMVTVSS
VL: QSVLTQPPSVSVSPGQTASITCSGDKVGDKYASWYQQKPGQSPVLVIYEDSKRPSGIPERFSGSNSGNTATLTISGTQAMDEADYYCQAWDTSFWVFGGGTKLTVLL
notes: format not clearly stated
B16: CD730002SGMY CDRL2 R54Y (Fab, V domains shown)
VH: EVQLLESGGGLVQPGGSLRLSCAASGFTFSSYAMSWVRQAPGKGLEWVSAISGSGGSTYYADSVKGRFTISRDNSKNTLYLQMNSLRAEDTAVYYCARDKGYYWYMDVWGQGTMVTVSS
VL: B15 VL with S51T, R53Y, L107V
notes: format not clearly stated
B17: CD730010 GL9 VH A50L Fab (Fab, name in Kabat numbering, V domains shown)
VH: B1 VH with Y34M, W52S, W55G, M106Y
VL: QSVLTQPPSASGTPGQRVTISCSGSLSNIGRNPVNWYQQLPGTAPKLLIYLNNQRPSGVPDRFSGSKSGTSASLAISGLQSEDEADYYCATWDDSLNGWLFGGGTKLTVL
notes: Bacterial Fab, normalized supernatant
B18: CD730010 GL9 VH G54N Fab (Fab, name in Kabat numbering, V domains shown)
VH: B1 VH with Y34M, L50A, W52S, W55N, M106Y
VL: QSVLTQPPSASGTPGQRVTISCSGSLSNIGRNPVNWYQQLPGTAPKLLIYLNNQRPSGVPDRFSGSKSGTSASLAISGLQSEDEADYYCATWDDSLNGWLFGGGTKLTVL
notes: as for B17
B19: CD730010 GL9 VH G54W Fab (Fab, name in Kabat numbering, V domains shown)
VH: B1 VH with Y34M, L50A, W52S, M106Y
VL: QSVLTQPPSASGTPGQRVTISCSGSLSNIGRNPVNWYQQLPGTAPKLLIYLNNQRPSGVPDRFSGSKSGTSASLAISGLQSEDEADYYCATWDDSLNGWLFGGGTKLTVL
notes: as for B17

Biological target: T1, Human CD73 ECD
Test: SPR (Proteon)

Binder | Kd [nM]
B1 | 0.023
B2 | 0.005
B3 | 0.009
B4 | 0.007

Biological target: T2, Human CD73 on cells (MDA-MB-231, Jurkat …)
Test: cell-based or functional assay

Binder | FabZAP internalization, EC50, MDA-MB-231 [nM] | FabZAP internalization, maximum toxicity, MDA-MB-231 [%]
B5 | 0.0925 | 91

Biological target: T1, Human CD73 ECD
Test: cell-based or functional assay

Binder | Enzyme Inhibition, rCD73, 1/EC50 (nM) [nM⁻¹]
B6 | 0.038
B7 | 0
B8 | 0.001

Biological target: T2, Human CD73 on cells (MDA-MB-231, Jurkat …)
Test: cell-based or functional assay
Remark: another data set of the same source

Binder | Enzyme Inhibition, MDA-MB-231, 1/EC50 (nM) [nM⁻¹] | Internalization, MDA-MB-231, 1/EC50 (nM) [nM⁻¹]
B6 | 0.0013 | 0.038
B7 | 0 | 0
B8 | 0.027 | 0.001

Biological target: T2, Human CD73 on cells (MDA-MB-231, Jurkat …)
Test: flow cytometry on cells

Binder | Kd [nM]
B1 | 0.158
B2 | 0.166
B3 | 0.354
B4 | 0.169

Biological target: T3, Murine CD73 on cells (4T1, Jurkat mCD73 …)
Test: flow cytometry on cells

Binder | Kd [nM]
B1 | 0.067
B2 | 0.064
B3 | 0.259
B4 | 0.205

Biological target: T4, Cynomolgus CD73 on MK-1 cells
Test: flow cytometry on cells

Binder | Kd [nM]
B1 | 0.105
B2 | 0.074
B3 | 0.258
B4 | 0.078

Biological target: T1, Human CD73 ECD
Test: binding assay, format not stated

Binder | 1/EC50 [nM⁻¹]
B8 | 0

Biological target: T2, Human CD73 on cells (MDA-MB-231, Jurkat …)
Test: FACS on MDA-MB-231 cells, vs CD730002SGMY

Binder | FACS signal, fold improvement over parental antibody [fold]
B9 | 1.3
B10 | 1.5
B11 | 1.5
B12 | 1.3
B13 | 1.1
B14 | 1.2
B15 | 1.5
B16 | 1.2

Biological target: T1, Human CD73 ECD
Test: direct ELISA, normalized Fab supernatant, vs CD730010 GL9

Binder | ELISA signal, fold improvement over parental antibody [fold]
B17 | 4.2
B18 | 8.9
B19 | 4.2

Biological target: T5, Murine CD73 ECD
Test: as above

Binder | ELISA signal, fold improvement over parental antibody [fold]
B17 | 3
B18 | 7.1
B19 | 3.7

Reference: patent US20230340152A1 (published 2023)
